The text below walks through data of US7514534.

Sequences and labels used below:
B1: D07 (antibody, human IgG4, V domains shown)
VH: EVQLLESGGGLVQPGGSLRLSCAASGFTFSEYNMFWVRQAPGKGLEWVSYIYSSGGSTDYADSVKGRFTISRDNSKNTLYLQMNSLRAEDTAVYYCARVGIAARPFDPWGQGTLVTVSS
VL: QSELTQPASVSGSPGQSITISCTGTNSDIGGYNYVSWYQQHPGKVPKLLIFEVNNRPSGVSSRFSGSKSGDTASLTISGLQPEDEAVYYCGSFTVSVTYVFGTGTKVTVLG
B2: C12 (antibody, V domains shown)
VH: EVQLLESGGGLVQPGGSLRLSCAASGFTFSAYNMMWVRQAPGKGLEWVSRIYPSGGYTLYADSVKGRFTISRDNSKNTLYLQMNSLRAEDTAVYYCARQKLMIRAVRPFDYWGQGTLVTVSS
VL: QSELTQPPSVSVSPAQTASITCSGDKLGDKYACWYQQKPGQSPVLVIYEDTKRPSGIPERFSGSNSGNTATLTISGTQVMDEADYYCQVWDSSTAVFGGGTKLTVLG
B3: C04 (antibody, human IgG4, V domains shown)
VH: EVQLLESGGGLVQPGGSLRLSCAASGFTFSMYFMVWVRQAPGKGLEWVSWIGSSGGETPYADSVKGRFTISRDNSKNTLYLQMNSLRAEDTAVYYCARGYSSGWYVMGDYWGQGTLVTVSS
VL: QSALTQPPSASGTPGQRVTISCSGTSSNIGSHYVFWYQQLPGTAPKLLIHRNDERPSGVPDRFSGSKSGTSASLAISGLQSEDEADYYCATWDDNLNGPVFGGGTKLT
B4: D08 (antibody, human IgG4, V domains shown)
VH: EVQLLESGGGLVQPGGSLRLSCAASGFTFSFYAMWWVRQAPGKGLEWVSRIYSSGGKTWYADSVKGRFTISRDNSKNTLYLQMNSLRAEDTAVYYCARVGMSTYAFDIWGQGTMVTVSS
VL: DIQMTQSPSSLSASVGDRVTITCRASQSISDYLNWYQQKPGKAPDLLIYAASSLQSGVPSRFSGSGSGTDFTLTVSSLQPEDFATYFCQQSYSIPLTFGGGTKVEITR
B5: C08 (antibody, human IgG4, V domains shown)
VH: EVQLLESGGGLVQPGGSLRLSCAASGFTFSYYEMMWVRQAPGKGLEWVSSISPSGGPTMYADSVKGRFTISRDNSKNTLYLQMNSLRAEDTGVYYCARKMGRVGYCSSTSCYRDDYYGMDVWGQGTTVTVSS
VL: DIQMTQSPPSLSALVGDRVTITCRASQSISRYVNWYQQKPGKAPKVLIYAASIVENGVPSRFSGSGSGTDFSLTISSLQPEDFATYYCQQTYSTPLTFGGGTKLAIKR
B6: D02 (antibody, human IgG4, V domains shown)
VH: EVQLLESGGGLVQPGGSLRLSCAASGFTFSWYDMAWVRQAPGKGLEWVSRIVPSGGHTSYADSVKGRFTISRDNFKNTLYLQMNSLRAEDTAVYYCARRASRPEFFDYWGQGALVTVSS
VL: DIQMTQSPSFLSASVGDRVTITCRASQGISTYLAWYQQKPGKAPKVLIYTASTLQSGVPSRFSGSGSGTEFTLTISSLQPEDFATYYCQQSYITPPEVTFGPGTKVDIKR
B7: C05 (antibody, human IgG4, V domains shown)
VH: EVQLLESGGGLVQPGGSLRLSCAASGFTFSSYQMDWVRQAPGKGLEWVSRIVPSGGDTTYADSVKGRFTISRDNSKNTLYLQMNSLRAEDTAVYYCARHVYYDSSDYFPNPFDYWGQGTLVTVSS
VL: QSELTQPPSVSGTPGQRVTISCSGSSSNIGSEYVYWFQQLPGTAPRLLIYRNDQRPSGVPDRFSGSKSGTSASLAISGLRSEDETDYYCTTWDDSLSGPVFGGGTKLTVLG
B8: C11 (antibody, human IgG4, V domains shown)
VH: EVQLLESGGGLVQPGGSLRLSCAASGFTFSEYPMWWVRQAPGKGLEWVSWIYPSGGNTDYADSVKGRFTISRDNSKNTLYLQMNSLRAEDTAVYYCAIPYCSSSSCPLHWGQGTLVTVSS
VL: QSELTQPPSASGSPGQSVTISCTGTSSDVGGYNYVSWYQQHPDKAPKLLIYEVTQRPSGVPDRFSGSRSGNTASLTVSGLQAEDEADYYCSSYAGRNNLYVFGPGTKVTVLG
B9: D04 (antibody, human IgG4, V domains shown)
VH: EVQLLESGGGLVQPGGSLRLSCAASGFTFSDYQMMWVRQAPGKGLEWVSRISPSGGMTRYADSVKGRFTISRDNSKNTLYLPMNSLRAEDTAVYYCARSGPYYFDYWGQGTLVTVSS
VL: DIQMTQSPSSLSASVGDRVAITCRASQSIDTYLNWYQQKPGKAPKLLIYAASKLEDGVPSRFSGSGTGTDFTLTIRSLQPEDFASYFCQQSYSSPGITFGPGTKVEIKR
B10: D06 (antibody, human IgG4, V domains shown)
VH: EVQLLESGGGLVQPGGSLRLSCAASGFTFSGYIMEWVRQAPGKGLEWVSVIVSSGGFTMYADSVKGRFTISRDNSKNTLYLQMNSLRAEDTAVYYCARVGDSKGGYYLDYWGQGTLVTVSS
VL: DIQMTQSPSSLSASVGDRVTITCRTSQIINTYLNWYQQKPGKAPKLLIYAASTLQGGVPSRFSGSGSGTDFTLTIKSLQPDDFATYYCQQSYTSPRTFGQGTKVEIKR

The experiment has as its target T1, MMP-26 (human).
T1 sequence: ASDF
Description: cell-based or functional assay.
With B1, the % Inhibition of JEG-3 cell invasion, 5 µg/ml (first test) came out at 21% and the % Inhibition of JEG-3 cell invasion, 25 µg/ml (first test) is 36%.

Molecule B2 showed a % Inhibition of JEG-3 cell invasion, 1 µg/ml (further test) of 36%; a % Inhibition of JEG-3 cell invasion, 5 µg/ml (first test) of 49%; a % Inhibition of JEG-3 cell invasion, 5 µg/ml (further test) of 35%; a % Inhibition of JEG-3 cell invasion, 25 µg/ml (first test) of 38%. The % Inhibition of JEG-3 cell invasion, 25 µg/ml (further test) amounted to 49% and the % Inhibition of JEG-3 cell invasion, 50 µg/ml (further test) is 27%.

In turn, B3 showed a % Inhibition of JEG-3 cell invasion, 1 µg/ml (further test) of 1%; a % Inhibition of JEG-3 cell invasion, 5 µg/ml (first test) of 35%; a % Inhibition of JEG-3 cell invasion, 5 µg/ml (further test) of 11%; a % Inhibition of JEG-3 cell invasion, 25 µg/ml (first test) of 36%. For the same molecule, the % Inhibition of JEG-3 cell invasion, 25 µg/ml (further test) worked out at 18% and the % Inhibition of JEG-3 cell invasion, 50 µg/ml (further test) came to 32%.

As to B4, the % Inhibition of JEG-3 cell invasion, 1 µg/ml (further test) worked out at 56%; the % Inhibition of JEG-3 cell invasion, 5 µg/ml (first test) amounted to 36%; the % Inhibition of JEG-3 cell invasion, 5 µg/ml (further test) stood at 50%; the % Inhibition of JEG-3 cell invasion, 25 µg/ml (first test) was determined as 35%. Besides, the % Inhibition of JEG-3 cell invasion, 25 µg/ml (further test) was determined as 76% and the % Inhibition of JEG-3 cell invasion, 50 µg/ml (further test) came to 53%.

Take B5: the % Inhibition of JEG-3 cell invasion, 1 µg/ml (further test) amounted to 34%; the % Inhibition of JEG-3 cell invasion, 5 µg/ml (first test) stood at 45%; the % Inhibition of JEG-3 cell invasion, 5 µg/ml (further test) stood at 42%; the % Inhibition of JEG-3 cell invasion, 25 µg/ml (first test) stood at 49%. This molecule gave a % Inhibition of JEG-3 cell invasion, 25 µg/ml (further test) of 49% and a % Inhibition of JEG-3 cell invasion, 50 µg/ml (further test) of 62%.

Regarding B6, the % Inhibition of JEG-3 cell invasion, 5 µg/ml (first test) amounted to 36% and the % Inhibition of JEG-3 cell invasion, 25 µg/ml (first test) was determined as 25%.

B7 returned a % Inhibition of JEG-3 cell invasion, 5 µg/ml (first test) of 16% and a % Inhibition of JEG-3 cell invasion, 25 µg/ml (first test) of 32%.

In turn, B8 registered a % Inhibition of JEG-3 cell invasion, 5 µg/ml (first test) of 28% and a % Inhibition of JEG-3 cell invasion, 25 µg/ml (first test) of 29%.

For the molecule B9, the % Inhibition of JEG-3 cell invasion, 1 µg/ml (further test) amounted to 47%; the % Inhibition of JEG-3 cell invasion, 5 µg/ml (first test) stood at 38%; the % Inhibition of JEG-3 cell invasion, 5 µg/ml (further test) was 34%; the % Inhibition of JEG-3 cell invasion, 25 µg/ml (first test) was 34%. The molecule also displayed a % Inhibition of JEG-3 cell invasion, 25 µg/ml (further test) of 45% and a % Inhibition of JEG-3 cell invasion, 50 µg/ml (further test) of 52%.

Consider B10, for which the % Inhibition of JEG-3 cell invasion, 5 µg/ml (first test) worked out at 0% and the % Inhibition of JEG-3 cell invasion, 25 µg/ml (first test) amounted to 35%.
